# Results taken from patent US20260265385A1 (ANAPTYSBIO, published 2026).
# T1: recombinant human IL-2Rβ (extracellular domain, Ala1-Thr215) (human, UniProt P14784 27-240)
# T1 construct: extracellular domain; Analyte in SPR; Ala1-Thr215 is counted on the mature protein; also called human LL-2Rβ; Human IL-2RB
# T1 sequence (looked up): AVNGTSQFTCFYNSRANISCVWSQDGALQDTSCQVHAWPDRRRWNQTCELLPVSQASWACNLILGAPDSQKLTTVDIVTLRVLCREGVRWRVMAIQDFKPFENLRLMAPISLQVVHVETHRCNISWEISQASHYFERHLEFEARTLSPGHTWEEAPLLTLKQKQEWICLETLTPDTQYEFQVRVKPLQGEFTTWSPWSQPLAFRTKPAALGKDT
# T2: recombinant cynomolgus IL-2Rβ (extracellular domain, Ala1-Thr215) (cynomolgus, UniProt Q38J85 27-240)
# T2 construct: extracellular domain; Analyte in SPR; also called cynomolgus LL-2Rβ; Cyno IL-2RB
# T2 sequence (looked up): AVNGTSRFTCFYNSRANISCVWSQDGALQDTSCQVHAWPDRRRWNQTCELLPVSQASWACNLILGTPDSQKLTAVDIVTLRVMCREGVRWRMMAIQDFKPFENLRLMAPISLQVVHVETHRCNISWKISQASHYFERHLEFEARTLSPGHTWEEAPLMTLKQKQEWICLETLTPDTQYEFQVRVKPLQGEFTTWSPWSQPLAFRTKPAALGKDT
# How the values were obtained:
# [1] = target: T1, recombinant human IL-2Rβ (extracellular …); test: SPR, antibody captured on Protein A chip
# Protocol: (§1) Surface plasmon resonance (SPR) was used to determine the binding affinities. The M6-1625 and M10-1275 antibodies were captured onto a Cytiva Protein A Chip for 60 seconds at 0.5 μg/mL for 60 seconds. The antibodies were exposed to recombinant human LL-2Rβ or cynomolgus LL-2Rβ (corresponding to residues Ala1-Thr215 of the extracellular domains excluding the signal peptide) at typical concentrations ranging from 0.4 nM to 11 nM with typical 300 second associations and 1200 second dissociations using a BiacoreS200 instrument. Sensorgrams were fit globally using a 1:1 binding model in the Biacore T200 Evaluation Software to calculate on- and off-rates and KD values.
# [2] = target: T2, recombinant cynomolgus IL-2Rβ …; test: SPR, antibody captured on Protein A chip
# Protocol: as §1
Binder,Kd [1],Kd [2]
"APE14946 (antibody, V domains shown, M6-p1625 series) VH: QVQLVQSGAEVKKPGASVKVSCKASGYTFSRYWIEWVRQAPGQGLEWMGEILPGSGSINHNEKFQGRVTFTADTSTSTVYMELSSLRSEDTAVYFCTRHYGSFDYWGQGTTVTVSS VL: DIQMTQSPSSLSASVGDRVTITCKASQNVGTDVAWYQQKPGKAPKSLIYSASYRYSGVPSRFSGSGSGTDFTLTISSLQPEDFATYFCHQYSSYPFTFGQGTKLEIKR",0.357 nM,0.255 nM
"APE14947 (antibody, V domains shown, M6-p1625 series) VH: QVQLVQSGAEVKKPGASVKVSCKASGYTFSRYWIEWVRQAPGQGLEWMGEILPGSGSINHNEKFQGRVTFTADTSTSTVYMELSSLRSEDTAVYFCTRHYGSFDYWGQGTTVTVSS VL: DIQMTQSPSSLSASVGDRVTITCKASQNVGTDVAWFQQKPGKAPKSLIYSASYRYNGVPSRFSGSGSGTDFTLTISSLQPEDFATYYCHQYSSYPFTFGQGTKLEIKR",1.46 nM,0.977 nM
"APE14948 (antibody, V domains shown, M6-p1625 series) VH: QVQLVQSGAEVKKPGASVKVSCKASGYTFSRYWIEWVRQAPGQGLEWMGEILPGSGSINHNEKFQGRVTFTADTSTSTVYMELSSLRSEDTAVYYCTRHYGSFDYWGQGTTVTVSS VL: DIQMTQSPSSLSASVGDRVTITCKASQNVGTDVAWYQQKPGKAPKSLIYSASYRYSGVPSRFSGSGSGTDFTLTISSLQPEDFATYFCHQYSSYPFTFGQGTKLEIKR",0.358 nM,0.266 nM
"APE14949 (antibody, V domains shown, M6-p1625 series) VH: QVQLVQSGAEVKKPGASVKVSCKASGYTFSRYWIEWVRQAPGQGLEWMGEILPGSGSINHNEKFQGRVTFTADTSTSTVYMELSSLRSEDTAVYYCTRHYGSFDYWGQGTTVTVSS VL: DIQMTQSPSSLSASVGDRVTITCKASQNVGTDVAWFQQKPGKAPKSLIYSASYRYNGVPSRFSGSGSGTDFTLTISSLQPEDFATYYCHQYSSYPFTFGQGTKLEIKR",1.5 nM,1 nM
"APE14950 (antibody, V domains shown, M6-p1625 series) VH: QVQLVQSGAEVKKPGASVKVSCKASGYTFSRYWIEWVRQAPGQGLEWMGEILPGSGSINHNEKFQGRVTMTRDTSTSTVYMELSSLRSEDTAVYYCTRHYGSFDYWGQGTTVTVSS VL: DIQMTQSPSSLSASVGDRVTITCKASQNVGTDVAWYQQKPGKAPKSLIYSASYRYSGVPSRFSGSGSGTDFTLTISSLQPEDFATYFCHQYSSYPFTFGQGTKLEIKR",0.252 nM,0.192 nM
"APE14951 (antibody, V domains shown, M6-p1625 series) VH: QVQLVQSGAEVKKPGASVKVSCKASGYTFSRYWIEWVRQAPGQGLEWMGEILPGSGSINHNEKFQGRVTMTRDTSTSTVYMELSSLRSEDTAVYYCTRHYGSFDYWGQGTTVTVSS VL: DIQMTQSPSSLSASVGDRVTITCKASQNVGTDVAWFQQKPGKAPKSLIYSASYRYNGVPSRFSGSGSGTDFTLTISSLQPEDFATYYCHQYSSYPFTFGQGTKLEIKR",0.804 nM,0.584 nM
"APE15085 (antibody, V domains shown, M6-p1625 series) VH: QVQLVQSGAEVKKPGASVKVSCKASGYTFSRYWIEWVRQAPGQGLEWMGEILPGSGSINHNEKFQGRVTMTRDTSTSTVYMELSSLRSEDTAVYYCTRHYGSFDYWGQGTTVTVSS VL: DIQMTQSPSSLSASVGDRVTITCKASQNVGTDVAWYQQKPGKAPKSLIYSASYRYSGVPSRFSGSGSGTDFTLTISSLQPEDFATYFCHQYESYPFTFGQGTKLEIKR",0.158 nM,0.154 nM
"APE15086 (antibody, V domains shown, M6-p1625 series) VH: QVQLVQSGAEVKKPGASVKVSCKASGYTFSRYWIEWVRQAPGQGLEWMGEILPGSGSINHNEKFQGRVTMTRDTSTSTVYMELSSLRSEDTAVYYCTRHYGSFDYWGQGTTVTVSS VL: DIQMTQSPSSLSASVGDRVTITCKASQNVGTDVAWYQQKPGKAPKSLIYSASYRYSGVPSRFSGSGSGTDFTLTISSLQPEDFATYFCQQYSSYPFTFGQGTKLEIKR",0.305 nM,0.25 nM
"APE15087 (antibody, V domains shown, M6-p1625 series) VH: QVQLVQSGAEVKKPGASVKVSCKASGYTFSRYWIEWVRQAPGQGLEWMGEILPGSGSINHNEKFQGRVTMTRDTSTSTVYMELSSLRSEDTAVYYCTRHYGSFDYWGQGTTVTVSS VL: DIQMTQSPSSLSASVGDRVTITCKASQNVGTEVAWYQQKPGKAPKSLIYSASYRYSGVPSRFSGSGSGTDFTLTISSLQPEDFATYFCHQYSSYPFTFGQGTKLEIKR",4.31 nM,3.56 nM
"APE15088 (antibody, V domains shown, M6-p1625 series) VH: QVQLVQSGAEVKKPGASVKVSCKASGYTFSRYWIEWVRQAPGQGLEWMGEILPGSGSINHNEKFQGRVTMTRDTSTSTVYMELSSLRSEDTAVYYCTRHYGSFDYWGQGTTVTVSS VL: DIQMTQSPSSLSASVGDRVTITCKASQNVGTNVAWYQQKPGKAPKSLIYSASYRYSGVPSRFSGSGSGTDFTLTISSLQPEDFATYFCHQYSSYPFTFGQGTKLEIKR",16.4 nM,16.7 nM
"APE15089 (antibody, V domains shown, M6-p1625 series) VH: QVQLVQSGAEVKKPGASVKVSCKASGYTFSRYWIEWVRQAPGQGLEWMGEILPGSGSINHNEKFQGRVTMTRDTSTSTVYMELSSLRSEDTAVYYCTRHYGSFDYWGQGTTVTVSS VL: DIQMTQSPSSLSASVGDRVTITCKASQNVDTDVAWYQQKPGKAPKSLIYSASYRYSGVPSRFSGSGSGTDFTLTISSLQPEDFATYFCHQYSSYPFTFGQGTKLEIKR",1.04 nM,9.39 nM
"APE15090 (antibody, V domains shown, M6-p1625 series) VH: QVQLVQSGAEVKKPGASVKVSCKASGYTFSRYWIEWVRQAPGQGLEWMGEILPGSGSIDHNEKFQGRVTMTRDTSTSTVYMELSSLRSEDTAVYYCTRHYGSFDYWGQGTTVTVSS VL: DIQMTQSPSSLSASVGDRVTITCKASQNVGTDVAWYQQKPGKAPKSLIYSASYRYSGVPSRFSGSGSGTDFTLTISSLQPEDFATYFCHQYSSYPFTFGQGTKLEIKR",0.657 nM,0.44 nM
"APE15091 (antibody, V domains shown, M6-p1625 series) VH: QVQLVQSGAEVKKPGASVKVSCKASGYTFSRYWINWVRQAPGQGLEWMGEILPGSGSINHNEKFQGRVTMTRDTSTSTVYMELSSLRSEDTAVYYCTRHYGSFDYWGQGTTVTVSS VL: DIQMTQSPSSLSASVGDRVTITCKASQNVGTDVAWYQQKPGKAPKSLIYSASYRYSGVPSRFSGSGSGTDFTLTISSLQPEDFATYFCHQYSSYPFTFGQGTKLEIKR",–,0.345 nM
"APE15092 (antibody, V domains shown, M6-p1625 series) VH: QVQLVQSGAEVKKPGASVKVSCKASGYTFSRYWIQWVRQAPGQGLEWMGEILPGSGSINHNEKFQGRVTMTRDTSTSTVYMELSSLRSEDTAVYYCTRHYGSFDYWGQGTTVTVSS VL: DIQMTQSPSSLSASVGDRVTITCKASQNVGTDVAWYQQKPGKAPKSLIYSASYRYSGVPSRFSGSGSGTDFTLTISSLQPEDFATYFCHQYSSYPFTFGQGTKLEIKR",–,0.126 nM
"APE15093 (antibody, V domains shown, M6-p1625 series) VH: QVQLVQSGAEVKKPGASVKVSCKASGYTFTRYWIEWVRQAPGQGLEWMGEILPGSGSINHNEKFQGRVTMTRDTSTSTVYMELSSLRSEDTAVYYCTRHYGSFDYWGQGTTVTVSS VL: DIQMTQSPSSLSASVGDRVTITCKASQNVGTDVAWYQQKPGKAPKSLIYSASYRYSGVPSRFSGSGSGTDFTLTISSLQPEDFATYFCHQYSSYPFTFGQGTKLEIKR",–,0.189 nM
